Measured values reported in the DeepSol protein solubility set.

Test: soluble on expression in E. coli; label from the status in PepcDB or PDB records

| Sequence | soluble on expression in E. coli |
| --- | --- |
| MSLQNVESELKDIRLPYKTKSLCPECLKILEAEVYEENGKVMIRKVCEEHGEFVDVYWGDAEMFKKAARFAADGHGISTPITQNTTCPFSCGLCNNHKSHTALLNIVLTNRCDLACWYCFFYARRAGYVYEPTIEQIREMVRKAKNMKPIGCNAVQLTGGEPTLRDDLIDIIRMIKEEGYDHIQLNTNGIRLAEDPDFALRVRVAGVNTVYLSFDGVDEKTNPKNHHEIPKILENCRRAQLGLVLVPTVIKGVNDHQLGDIIRFAAENIDIVRGVNFQPVSLVGSMPRKEREQFRITIPDCIKAIEEQTNGEIGREDFYPVPSVVPISRFVEALTGQPQYELTTHFACGMATYIFKDNGRLIPITRFVDVEGLFEFLNEKAEEIAKSRMKTIRAIKDIIDLRKFVDTSKAPKGFNIAKILYEVLIKHDYSTLGEFHVKSLFIGMMHFQDLYNYDIARVERCEIHYGSPDGRIIPFCTFNVIPERYRDAIHEKYGIPIEEWEKRTGRKLKDDIKRAVRRPEGHHHHHH | soluble |
| MCSDVVAGDLNDLRIAALNLGKMSELYTNGAFVLGIAQGADTETYGRPHEWWSYVEQQLATALRFTYDRLNDGQEALLAAIDAYAYVDGDNAKGLTDVGKEYKEYISNPNNVGDEKYYDPPPLHTMVDAPDLGDKPEGWEEKYDG | not soluble |
| MTEDLFGDLQDDTILAHLDNPAEDTSRFPALLAELNDLLRGELSRLGVDPAHSLEIVVAICKHLGGGQVYIPRGQALDSLIRDLRIWNDFNGRNVSELTTRYGVTFNTVYKAIRRMRRLKYRQYQPSLL | soluble |
| MPKPVIAIVGRPNVGKSTIFNRIVGERVSIVEDIPGVTRDRIYSAGEWLNHEFNIIDTGGIDIGDEPFLTQIRQQAEVAIDEADVIIFMTNGRDGVTAADEEVAKILYRSNKPVVLAVNKVDNPEMRSDIYDFYALGFGEPFPISGTHGLGLGDLLDEAAQHFPKIEEDGYDEDTIRFSLIGRPNVGKSSLVNALLGQERVIVSNVAGTTRDAVDTPYSKDGKDYVIIDTAGMRKKGKVYESTEKYSVLRALRAIERSDVVLVVLDGEEGIIEQDKKIAGYAHDSGRAVVIVVNKWDAVKKDEKTMKAFEENIRAHFQFLEYAPIVFLSAKTRKRTQTLIPVIDEVNESHSIRIQTNVLNDVIMDAVAMNPTPTHNGSRLKIFYATQVAVKPPTFVVFVNDPELLHFSYERFLKNRLRESFGFVGTPIHIIARARD | soluble |
| MNGKEIGEKNSKKYSFEVDSRSVYKCVQCGTCRSVCPVFDVVGWESANTRGRMLIIKSLLEGRPPSEDVLPSLASCTTCGICAAKCPAGANPPEVVEAARAQLVKCGVTTEAQLEHHHHHH | not soluble |
| MSVNEADLNAVEEQLGRAPRGVLDISYRSPDGVPGVVMTAPKLDDGTPFPTLYYLTDPRLTTEASRLEVALVMKWMTDRLSTDEELRADYQRAHEHFLAKRNAIEDLGTDFSGGGMPDRVKCLHVLIAYALAEGPDHFRLGTEAVAMAAEHGDLRGTAIPEDWPTVQDLGINMEDFDFSRAGGA | not soluble |
| TSTMTDTVFSNSSNRWMYPSDRPLQSNDKEQLQAGWSVHPGGQPDRQRKQEELTDEEKEIINRVIARAEKMEEMEQERIGRLVDRLENMRKNVAGDGVNRCILCGEQLGMLGSACVVCEDCKKNVCTKCGVETNNRLHSVWLCKICIEQREVWKRSGAWFFKGFPKQVLPQPMPIKKTKPQQPVSEPAAPEQPAPEPKHPARAPARGDSEDRRGPGQKTGPDPASAPGRGNYGPPVRRASEARMSSSSRDSESWDHSGGAGDSSRSPAGLRRANSVQASRPAPGSVQSPAPPQPGQPGTPGGSRPGPGPAGRFPDQKPEVAPSDPGTTAPPREERTGGVGGYPAVGAREDRMSHPSGPYSQASAAAPQPAAARQPPPPEEEEEEANSYDSDEATTLGALEFSLLYDQDNSSLQCTIIKAKGLKPMDSNGLADPYVKLHLLPGASKSNKLRTKTLRNTRNPIWNETLVYHGITDEDMQRKTLRISVCDEDKFGHNEFIGETRFSLKKLKPNQRKNFNICLERVIPMKRAGTTGSARGMALYEEEQVERVGDIEERGKILVSLMYSTQQGGLIVGIIRCVHLAAMDANGYSDPFVKLWLKPDMGKKAKHKTQIKKKTLNPEFNEEFFYDIKHSDLAKKSLDISVWDYDIGKSNDYIGGCQLGISAKGERLKHWYECLKNKDKKIERWHQLQNENHVSSD | soluble |
| MGSDKIHHHHHHMTEDQAFWNAFAPDYAAAEQASRLPIAHDVIAWLRSTQLLPAHSAVDLAAGTGRYAVQMMPWVQELTLIDWSSAMLAFAKERMHQQADTKAQFIVADWRKLHKPLNADMLFVSQLPTLKPQDLKMLMNWASQTVVLNFQTAQSDALLEQAASLLGLQLPPVYQADPARMISFKVWLTAQRIPFQSHSLTYEIEEQTTLSDLLPDLATPIGLKTAASLAKAITGHENTHVQVTDRLTYTYTQLVWHV | not soluble |
| GGSGERKISRIHLVSEPSITHFLQVSWEKTLESGFVITLTDGHSAWTGTVSESEISQEADDMAMEKGKYVGELRKALLSGAGPADVYTFNFSKESCYFFFEKNLKDVSFRLGSFNLEKVENPAEVIRELICYCLDTTAKNEKSIDDLEEKVAHAKEENLNMHQMLDQTLLELNNM | soluble |
| MAHHHHHHMEGEEVPLVQPFRQHREQCRVKLQEIGPRMTLQLSKVENGFAGGEVIYHRTEKKTLREVQVNASKVRARKTEKAKRRALQDENVQRKRQKREDKLERKHQRREAAAEAQQANPFEVAHGDGDGDGYAAGDEE | not soluble |
| MTESKTAIIFDMDGVLVDSEAYYYERRKAFLAEFDLTIEGLTLPELVGADMRSLWQKIEQVNKKELDIAFLNEQYIAYKKAHPIDYLAVLDENAKRVLQFLKRQGYKIGLASSSTKDAIEEVLTVGQLSSYFDAVVSGEDFEESKPAPDIYLHTLQELAVAPQECIAIEDSEKGIASAKEAGLEVWAMRDEHFGMDQSQADAFLTQLSDICKKISENRIDESSESTPS | not soluble |
| MNGYIINIRYQQMGRVIYMFFFAIFGIQDKNKHIGNCNNIVCPSCGRLSMYEVYKYYKYFHIFFLPIFKWDVRYIVKTSCCGCLYELDPLVGKEFEKNPSTEIREENLQRIDRYSPFKYCSNCRTEVPVEYSYCPYCGERLLEHHHHHH | not soluble |
| MKPVKVGICGLGTVGGGTFNVLERNAEEIARRAGRGIEVAQIAARRPNPKCDTGATPITADIFDVACNPEIDVVVELIGGYTLAHELVLKAIENGKHVVTANKALIAVHGNEIFAKAREKGVIVAFEAAVAGGIPVIKAIREGLSANRINWLAGIINGTGNFILSEMREKGRTFPDVLAEAQALGYAEADPTFDVEGIDAAHKLTILASIAFGIPLQFDKAYTEGISKLTSADVNYADALGYRIKHLGVARRTESGFELRVHPTLIPSDRLIANVNGVMNAVMVNGDAVGSTLYYGAGAGMEPTASSVVADLVDVVRAMTSDPENRVPHLAFQPDALSDHPILPIEACESAYYLRIQAKDHPGVLAQVATILSERGINIESIMQKEAEEQDGLVPMILVTHRVIEQRINDAIAALEALEGVSGPVVRIRVEQL | soluble |
| MGHHHHHHSHMAASFAFLRDVRPYKTSWRVQVKVLHSWCQYTNMTGETLKLVLVNSQGVKIHASVKKDLVSKYVNNLPLNEWTFIETFALNHASGQFRPTGHLYKMSFVTGTQVIRCDS | soluble |
| MSKRRYLTGKEVQAMMQAVCYGATGARDYCLILLAYRHGMRISELLDLHYQDLDLNEGRINIRRLKNGFSTVHPLRFDEREAVERWTQERANWKGADRTDAIFISRRGSRLSRQQAYRIIRDAGIEAGTVTQTHPHMLRHACGYELAERGADTRLIQDYLGHRNIRHTVRYTASNAARFAGLWERNNLINEKLKREEV | not soluble |
